From patent US20250171542A1 (ADEPT THERAPEUTICS, published 2025)
Changes are numbered by the printed parent chain.

B1: 74F4 (antibody, human IgG1, V domains shown)
VH: QEQLEESGGGLVQPEGSLTLTCTASGFSFSGDYYMSWVRQAPGKGLEWIASIYTGSLNTYYATWAKGRFTISLTSSTTVTLQMTSLTAADTATYFCARRNKNADYGHFDLWGPGTLVTVSS
VL: YDMTQTPASVEVAVGGTVTIKCQASQSINDRLAWYQQSPGQPPKLLIYGASTLASGVPSRFKGSGSGTDFTLTISDLECADAATYYCQQGWTVSSLDNAFGGGTEVVAK
B2: 57B10 (antibody, human IgG1, V domains shown)
VH: B1 VH with G31D, Y105W
VL: B1 VL with N29S, D30T, R31A, S38K, G49A, K62R, K109M
B3: 56E5 (antibody, human IgG1, V domains shown)
VH: B1 VH with N100H
VL: B1 VL with A8G, S38T, D69E
B4: 55H3/76D6 (antibody, human IgG1, V domains shown)
VH: B1 VH with A24V, I49V, T59S
VL: B1 VL with Q26E, S38K, G49A, K62R, K109M
B5: 27A2 (antibody, human IgG1, V domains shown)
VH: QEQLEESGGGLVQPEGSLTLTCTASGFSFSSNHYMSWVRQAPGKGLEWIGSIGVGSGITDYASWAKGRFTISKASSTTLTLQMTTLTAADTAIYFCARWTSGGGGFGLWGPGTLVTVSS
VL: QVLTQTSSPVSAAVGGTVTINCQSSQTIYSDYLFWYQQTPGQPPKLLIYQTSTLASGVPSRFKGSGSGTEFTLTISEIQCDDAATYYCQGYYSGYIWTFGGGTEVVVR
B6: 56H3 (antibody, human IgG1, V domains shown)
VH: B5 VH with E5V, G26E, S31N, H33Y, I49L, V54I, L79V
VL: B5 VL with T39K, K63S, E70Q, E77G, I78V, R108N

What follows are binders tested against T1, human PD-L1-His (Sino Biological, Cat #10084-H08H) (human, UniProt Q9NZQ7 19-238) (assay: ELISA, coated human PD-L1-His).
T1 construct: Bought protein; also called human PD-L1 ECD-His; recombinant human PD-L1-His protein; not shown: His tag
Description: (§1) Briefly, Maxisorp plates (Nunc) were coated with 100 ul/well of 0.5 μg/ml human PD-L1-His (Sino Biological, Cat #10084-H08H) or cynomolgus PD-L1-His (Sino Biological, Cat. 90251-C08H) protein diluted in 1×PBS (GIBCO) overnight at 4° C. Plates were washed three times with 300 μl/well washing buffer (1×PBST, diluted from 20×PBST (Thermo Scientific) with distilled water)) and then blocked with 300 μl/well of blocking buffer (1×PBST/I % BSA) for 2 hours at RT on shaker (100 rpm). Plates were washed and added with 100 μl/well of testing antibodies, which were serial diluted with assay buffer (PBST/1% BSA). The antibodies were incubated at room temperature for 2 hours on plate shaker at 100 rpm. Plates were washed. One hundred microliter of horseradish peroxidase (HRP) conjugated detection antibody was added into each well and incubated at room temperature for 1 hour on plate shaker at 100 rpm. Plates were washed and added with 100 μl/well TMB substrate for color development at room temperature in dark for up to 10 minutes. After addition of 50 μl/well of stop solution (1N H₂SO₄), plates were read at 450 nm on a plate reader (SpectraMax M5).
(§2) Anti-HEL isotype control (Biolntron) was used as negative control.

T1 sequence (Q9NZQ7 19-238): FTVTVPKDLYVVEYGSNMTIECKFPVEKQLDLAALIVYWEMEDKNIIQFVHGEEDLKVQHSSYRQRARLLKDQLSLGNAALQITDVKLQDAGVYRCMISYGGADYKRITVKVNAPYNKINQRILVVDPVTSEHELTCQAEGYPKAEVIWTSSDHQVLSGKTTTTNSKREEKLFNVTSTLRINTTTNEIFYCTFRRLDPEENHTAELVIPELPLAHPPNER

| Binder | EC50 |
| --- | --- |
| B1 | 0.0157 nM |
| B2 | 0.0186 nM |
| B3 | 0.0184 nM |
| B4 | 0.0199 nM |
| B5 | 0.0146 nM |
| B6 | 0.0172 nM |

Each binder was assayed against T1, human PD-L1-His (Sino Biological, Cat …) (assay: BLI (Gator), antibody on HFC probe, human PD-L1-His in solution).
Description: The affinity of the binding of the exemplary anti-PD-L1 antibodies of the present disclosure was determined. Assay was performed according to the protocol recommended by Gator or Gator Plus (Gator Bio Inc.). Briefly, human PD-L1-His (Sino Biological, Cat #10084-H08H) was serially diluted 4-fold, starting at 4 μg/ml. After three times of regeneration in generation buffer (Gator Bio, Cat #120012) and neutralization of HFC probe (Gator Bio, Cat #160003), 1 μg/ml of antibody to be tested in Q buffer (Gator Bio, Cat #120010) was immobilized onto HFC probe. After a baseline step, probe immobilized with antibody was dipped into antigen solutions. The association and dissociation of antigen from antibody was measured on BLI machine Gator. Affinity was calculated using Gator Bio analysis software.
Table 22 below summarizes the binding affinity to human PD-L1 using Gator.

| Binder | Kd | koff | kon |
| --- | --- | --- | --- |
| B1 | 0.36 nM | 0.000238 s⁻¹ | 648000 M⁻¹ s⁻¹ |
| B2 | 0.09 nM | 7.7e-05 s⁻¹ | 810000 M⁻¹ s⁻¹ |
| B3 | 0.75 nM | 0.00056 s⁻¹ | 748000 M⁻¹ s⁻¹ |
| B4 | 0.64 nM | 0.000317 s⁻¹ | 498000 M⁻¹ s⁻¹ |
| B5 | 0.06 nM | 3.6e-05 s⁻¹ | 643000 M⁻¹ s⁻¹ |
| B6 | 0.58 nM | 0.000399 s⁻¹ | 686000 M⁻¹ s⁻¹ |

Each binder was assayed against T2, human PD-L1 expressed on cell surface (human, UniProt Q9NZQ7 19-290) (assay: flow cytometry, MDA-MB-231-GFP cells).
T2 construct: also called cell surface PD-L1
Description: Cells were then resuspended in FACS buffer (1×DPBS/1% FBS) at 10⁶/ml concentration. One hundred microliter (100 μl) of cells were aliquoted into a single well in 96 well plates. The antibodies to be tested were serially diluted at 1:3 fold starting at 15 ug/mL and were then added into each well. The antibodies were mixed with cells and the mixtures were incubated on ice for 1 hour. […] After washing with FACS buffer, stained cells were resuspended at diluted […] (Biolegend, Cat #420404, used at 1:100 dilution) and analyzed on Guava 11HT (Luminex). Data was analyzed using Flowjo software.
as §2

T2 sequence (Q9NZQ7 19-290 limits assumed): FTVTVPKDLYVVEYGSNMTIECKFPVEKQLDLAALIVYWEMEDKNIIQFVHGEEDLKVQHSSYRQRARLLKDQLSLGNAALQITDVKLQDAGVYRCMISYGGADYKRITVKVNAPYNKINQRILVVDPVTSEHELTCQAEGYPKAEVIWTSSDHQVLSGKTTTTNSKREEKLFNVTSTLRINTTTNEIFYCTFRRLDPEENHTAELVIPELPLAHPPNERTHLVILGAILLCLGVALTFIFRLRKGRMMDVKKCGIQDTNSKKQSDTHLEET

| Binder | EC50 |
| --- | --- |
| B1 | 1.44 nM |
| B2 | 4.82 nM |
| B3 | 1.29 nM |
| B4 | 2.93 nM |
| B5 | 0.14 nM |
| B6 | 0.19 nM |

Each binder was assayed against T3, PD-L2 (Sino Biological, Cat #10292-H08H) (UniProt Q9BQ51 20-219) (assay: ELISA).
T3 sequence (looked up): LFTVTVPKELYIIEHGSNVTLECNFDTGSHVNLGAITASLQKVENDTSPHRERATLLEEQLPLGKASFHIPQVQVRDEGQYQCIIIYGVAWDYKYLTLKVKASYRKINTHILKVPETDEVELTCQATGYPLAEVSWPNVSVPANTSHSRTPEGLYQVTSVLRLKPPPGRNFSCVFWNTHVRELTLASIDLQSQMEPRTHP

| Binder | binding result |
| --- | --- |
| B1 | no binding |
| B2 | no binding |
| B3 | no binding |
| B4 | no binding |
| B5 | no binding |
| B6 | no binding |

These binders were tested against T4, B7-H3 (Sino Biological, Cat #11188-H08H) (UniProt Q5ZPR3 29-461) (assay: ELISA).
T4 sequence (looked up): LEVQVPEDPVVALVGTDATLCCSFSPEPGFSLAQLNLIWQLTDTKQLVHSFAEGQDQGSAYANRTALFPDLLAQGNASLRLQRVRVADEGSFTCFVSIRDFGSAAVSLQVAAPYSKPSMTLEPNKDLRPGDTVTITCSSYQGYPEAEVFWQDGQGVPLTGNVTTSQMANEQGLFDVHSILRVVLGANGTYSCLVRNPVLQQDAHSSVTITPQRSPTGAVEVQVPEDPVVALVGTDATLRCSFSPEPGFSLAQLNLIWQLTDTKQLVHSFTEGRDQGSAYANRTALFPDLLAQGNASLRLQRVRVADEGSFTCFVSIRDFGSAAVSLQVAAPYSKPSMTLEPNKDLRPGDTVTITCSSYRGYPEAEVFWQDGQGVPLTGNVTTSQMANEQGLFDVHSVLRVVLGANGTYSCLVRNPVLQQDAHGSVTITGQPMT

| Binder | binding result |
| --- | --- |
| B1 | no binding |
| B2 | no binding |
| B3 | no binding |
| B4 | no binding |
| B5 | no binding |
| B6 | no binding |

What follows are binders tested against mouse PD-L1 (Sino Biological, Cat #50010-M08H) (mouse, UniProt Q9EP73 19-238) (assay: ELISA).
Sequence of mouse PD-L1 (Sino Biological, Cat #50010-M08H) (Q9EP73 19-238 limits assumed, stated change not applied): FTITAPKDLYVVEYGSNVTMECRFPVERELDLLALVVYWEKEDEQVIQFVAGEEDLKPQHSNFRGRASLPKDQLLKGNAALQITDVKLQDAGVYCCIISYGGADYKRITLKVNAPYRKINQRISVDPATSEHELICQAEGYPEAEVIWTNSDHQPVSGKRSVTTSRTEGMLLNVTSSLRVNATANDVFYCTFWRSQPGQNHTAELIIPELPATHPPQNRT

| Binder | binding result |
| --- | --- |
| B1 | no binding |
| B2 | no binding |
| B3 | no binding |
| B4 | no binding |
| B5 | no binding |
| B6 | no binding |

The binders below were run against T5, cynomolgus PD-L1-His (Sino Biological, Cat. 90251-C08H) (cynomolgus, UniProt Q9NZQ7 19-238 (human entry)) (assay: ELISA, coated cyno PD-L1-His).
T5 construct: Bought protein; also called Cyno PD-L1; Cynomolgus PD-L1 ECD-His; not shown: His tag
Description: as §1, §2

T5 sequence (Q9NZQ7 other isoform, or with tags, fused parts or gaps C08H C08H limits assumed): as the sequence (Q9NZQ7 19-238) above, with A33T, A34S, S62N, R68Q, Q82R, F173L, T185A, T192I, H215L counted along it

| Binder | EC50 |
| --- | --- |
| B1 | 0.0125 nM |
| B2 | 0.0071 nM |
| B3 | 0.0078 nM |
| B4 | 0.0126 nM |
| B5 | 0.0113 nM |
| B6 | 0.0076 nM |

What follows are binders tested against T5, cynomolgus PD-L1-His (Sino Biological, …) (assay: BLI (Gator), cynomolgus PD-L1).

| Binder | Kd | koff | kon |
| --- | --- | --- | --- |
| B1 | 0.01 nM | 5e-06 s⁻¹ | 387000 M⁻¹ s⁻¹ |
| B2 | 0.03 nM | 7e-06 s⁻¹ | 284000 M⁻¹ s⁻¹ |
| B3 | ≤ 0.03 nM | ≤ 1e-05 s⁻¹ | 313000 M⁻¹ s⁻¹ |
| B4 | 0.03 nM | 1.1e-05 s⁻¹ | 307000 M⁻¹ s⁻¹ |
| B5 | 0.03 nM | 1.3e-05 s⁻¹ | 390000 M⁻¹ s⁻¹ |
| B6 | 0.25 nM | 8.7e-05 s⁻¹ | 349000 M⁻¹ s⁻¹ |

These binders were tested against T2, human PD-L1 expressed on cell surface (assay: cell-based or functional assay).

| Binder | Internalization (%), FACS, 0.25 µg/ml, 2 h | Internalization (%), FACS, 0.25 µg/ml, 4 h | Internalization (%), FACS, 0.5 µg/ml, 2 h | Internalization (%), FACS, 0.5 µg/ml, 4 h | Internalization (%), FACS, 1 µg/ml, 2 h | Internalization (%), FACS, 1 µg/ml, 4 h | Internalization (%), FACS, 2 µg/ml, 2 h | Internalization (%), FACS, 2 µg/ml, 4 h |
| --- | --- | --- | --- | --- | --- | --- | --- | --- |
| B1 | 19% | 15.3% | 22.5% | 15.7% | 19.5% | 18.2% | 24.1% | 22% |
| B2 | 19.3% | 16.5% | 11.1% | 21.7% | 12.7% | 15.6% | 19.2% | 22.1% |
| B3 | 22.9% | 22.1% | 20.7% | 19.8% | 23.8% | 20.6% | 24.7% | 26.5% |
| B4 | 22.9% | 20.6% | 20.8% | 19.9% | 22.1% | 17.9% | 24.2% | 22.2% |
| B5 | 18.5% | 18.3% | 15.5% | 14.7% | 13.7% | 13.7% | 12.7% | 9.7% |
| B6 | 16.3% | 16% | 16.1% | 19% | 15.3% | 9.1% | 6.5% | 4.8% |
